In patent US20030040044A1:
Values belong to the substance of their own block, whether it stands above or below them.

Columns and labels:
[1] = molecular target: αVβ5 integrin on human cells (human) (UniProt P06756)
[2] = molecular target: αVβ5 integrin on human cells (human) (UniProt P06756); experiment: binding of radiolabelled P1F6 to HT-29 cells, Bmax, n = 1
[3] = molecular target: αVβ5 integrin on human cells (human) (UniProt P06756); remark: listed apart in the source
[4] = molecular target: αVβ5 integrin on human cells (human) (UniProt P06756); experiment: binding of radiolabelled P1F6 to A375S2 cells, Bmax, n = 4
[5] = molecular target: αVβ5 integrin on human cells (human) (UniProt P06756); experiment: binding of radiolabelled P1F6 to M21 cells, Bmax, n = 2
[6] = molecular target: αvβ3 and αvβ5 integrins together on human cells (M21, A375S2, HUVEC) (human) (UniProt P06756)
[7] = molecular target: human αVβ3 integrin, purified (human) (UniProt P06756); experiment: saturation binding on αvβ3 coated plate (ELISA), non-linear regression, n = 6
[8] = molecular target: αVβ3 integrin on human cells (human) (UniProt P06756)
[9] = molecular target: αVβ3 integrin on human cells (human) (UniProt P06756); remark: listed apart in the source
[10] = molecular target: αVβ3 integrin on human cells (human) (UniProt P06756); experiment: binding of radiolabelled LM609 to A375S2 cells, Bmax, n = 2
[11] = molecular target: human αVβ3 integrin, purified (human) (UniProt P06756); experiment: ELISA on αVβ3-coated plates, fifty percent maximal binding

Substance: P1F6 (antibody)
- Adhesion (%) of A375S.2 cells to vitronectin (% of adhesion without antibody) [1]: 28.5
- Receptors per cell (receptors per cell) [2]: 73000
- Adhesion (%) of HUVEC to vitronectin (% of adhesion without antibody) [3]: 39.8
- Receptors per cell (receptors per cell) [4]: 70000
- Receptors per cell (receptors per cell) [5]: 44000

Substance: ReoPro (Fab)
- Kd [7]: 0.25 nM

Substance: LM609 (antibody)
- Adhesion (%) of A375S.2 cells to fibrin (% of adhesion without antibody) [8]: 50
- Adhesion (%) of A375S.2 cells to fibrinogen (% of adhesion without antibody) [8]: 14
- Adhesion (%) of A375S.2 cells to gelatin (% of adhesion without antibody) [8]: 25.2
- Adhesion (%) of A375S.2 cells to vitronectin (% of adhesion without antibody) [8]: 42.1
- Adhesion (%) of HUVEC to fibrin (% of adhesion without antibody) [9]: 48.1
- Adhesion (%) of HUVEC to fibrinogen (% of adhesion without antibody) [9]: 14.3
- Adhesion (%) of HUVEC to gelatin (% of adhesion without antibody) [9]: 36.5
- Adhesion (%) of HUVEC to vitronectin (% of adhesion without antibody) [9]: 26.3
- Receptors per cell (receptors per cell) [10]: 300000

Second part, the substance after the results:

- Adhesion (%) of HUVEC to vitronectin (% of adhesion without antibody) [6]: 96.3
Substance: Human IgG (polyclonal serum or antibody)

- EC50 [11]: 0.07 µg/mL
Substance: c7E3 IgG (antibody)
